According to the RNAGym collection of RNA variant scans (doi:10.7554/elife.80360):

B1: HDV Ribozyme (parent)
chain: GGCCGGCAUGGUCCCAGCCUCCUCGCUGGCGCCGGCUGGGCAACAUUCCGAGGGGACCGUCCCCUCGGUAAUGGCGAAUGGGACCCA

Variants of: B1
Test: self-cleavage, relative activity (ratio to wild type); higher = more cleavage; co-transcriptional

In order of falling self-cleavage:
1. C14U A16G  1.21
2. C14U A51C  1.19
3. C14A C58A  1.17
4. C14G U27G  1.14
5. C14U G67A  1.09
6. C14U C26A  1.08
7. C14A C26U  1.07
8. C14G C86U  1.07
9. C14U G55C  1.05
10. C15A C58G  1.02
11. C14A U69A  0.997
12. C14U A45G  0.988
13. C14G G81C  0.974
14. C14G A56U  0.969
15. C14G G59A  0.962
16. C14U C36U  0.96
17. C14G G81A  0.957
18. C14A A16U  0.923
19. C15A C26U  0.895
20. C14G U60A  0.831
21. C14U C85U  0.831
22. C13U C57A  0.831
23. C13U A51U  0.802
24. C14G G53U  0.802
25. C15A A71U  0.802
26. C15A C57U  0.8
27. C15A A45G  0.8
28. C15A C62U  0.764
29. C15A C57A  0.764
30. C14U C26G  0.76
31. C14U G68C  0.733
32. C14G U27C  0.727
33. C14U C85G  0.712
34. C14A A45G  0.703
35. C14U C44G  0.7
36. C14G C26G  0.692
37. C14A U60G  0.684
38. C15A C62A  0.677
39. C13U A56C  0.677
40. C14A G53C  0.665
41. C15A C49U  0.656
42. C14G U37C  0.646
43. C13U U47A  0.646
44. C14G A56G  0.646
45. C14U A43G  0.643
46. C14A A87C  0.643
47. C14G C58A  0.639
48. C14G C26A  0.639
49. C13U G50C  0.636
50. C14U G35A  0.631
51. C15A C57G  0.623
52. C13U G54C  0.623
53. C13U G68U  0.614
54. C15A A56G  0.587
55. C13U C32U  0.584
56. C13U G54U  0.578
57. C13U U60A  0.554
58. C14U U46A  0.554
59. C15A C44A  0.529
60. C14A U46G  0.525
61. C13U G68C  0.511
62. C15A C61G  0.508
63. C13U U65A  0.508
64. C15A C62G  0.499
65. C15A A77G  0.485
66. C14A U60C  0.485
67. C14G A51G  0.475
68. C15A C48G  0.475
69. C14A C84A  0.458
70. C13U C58U  0.403
71. C14U G80U  0.4
72. C13A G76C  0.386
73. C14A C24A  0.383
74. C13U U46G  0.356
75. C15A A43G  0.323
76. C15A C32U  0.314
77. C14U G80C  0.314
78. C13U G80A  0.31
79. C14G G50C  0.302
80. C15A G17A  0.302
81. C13U A77C  0.293
82. C14G A83U  0.289
83. C13U U23G  0.287
84. C15A A42U  0.269
85. C14A C84U  0.262
86. C13G A43C  0.262
87. C14A G40U  0.261
88. C14A C36U  0.259
89. C14U U79C  0.259
90. C15A G17U  0.252
91. C14G A45U  0.237
92. C13G G25U  0.232
93. C13A G81U  0.22
94. C13G G76C  0.217
95. C13U G17C  0.217
96. C14G C44U  0.208
97. C14G G74A  0.199
98. C13U A45U  0.198
99. C13A G54U  0.188
100. C14A G40C  0.185
101. C13U A78G  0.178
102. C14G U79C  0.173
103. C14U G34C  0.172
104. C14G C18A  0.17
105. C15A C49G  0.166
106. C13G C36G  0.158
107. C14U C22G  0.155
108. C15A A45C  0.151
109. C13G C61U  0.148
110. C14A C24G  0.146
111. C14A C30U  0.143
112. C15A C75U  0.141
113. C13A G53U  0.138
114. C13G G34U  0.136
115. C13U G74A  0.131
116. C13U A42U  0.125
117. C14U C21G  0.125
118. C13U C22A  0.124
119. C14A G17C  0.123
120. C14G C18U  0.115
121. C14A U20C  0.111
122. C15A C30U  0.104
123. C13U G29A  0.104
124. C14A G80C  0.104
125. C14A G73C  0.104
126. C13U C32G  0.101
127. C13A G74A  0.101
128. C14G A43G  0.0978
129. C15A A77C  0.0978
130. C13G G68U  0.0978
131. C13G C33A  0.0978
132. C13G C84U  0.095
133. C13G A43U  0.0923
134. C14G A42C  0.0923
135. C13G A87U  0.0911
136. C13U G74U  0.0852
137. C13U A42C  0.0831
138. C13U U20A  0.0831
139. C13U C22G  0.0831
140. C13G A78C  0.0811
141. C13G A42U  0.0811
142. C14A A78U  0.0791
143. C13G C48U  0.0739
144. C14G C30G  0.0692
145. C15A G29C  0.0692
146. C13A G80U  0.0654
147. C13U G28U  0.0615
148. C13A U46G  0.0594
149. C14A C22G  0.0573
150. C15A A43C  0.0554
151. C14U C19A  0.0545
152. C14A A78G  0.0519
153. C14G U37A  0.0489
154. C14G G25A  0.0437
155. C15A C21U  0.0415
156. C13G G31U  0.0405
157. C13G C62U  0.0369
158. C13A G74C  0.0346
159. C13U G29C  0.0332
160. C15A C21A  0
161. C13G G52U  0
162. C13G G68C  0
163. C14G C24G  0
164. C13G C58A  0
165. C15A G29U  0
166. C14G C22G  0
167. C14G C22A  0
